In US7326418B2, “Identification of novel factors that block programmed cell death or apoptosis by targeting JNK” (University of Chicago, priority 2001, dated 2008):

What was measured:
JNKK1 = target: T1, JNKK1 (Mus musculus, UniProt P47809); experiment: GST pull-down, GST-Gadd45β beads with in vitro translated 35S-labeled JNKK1; assay type: binding, murine
T1 construct: plasmids encoding full-length (FL) human ASK1, MEKK4, JNKK1, and JNKK2; made in house; host or cells: TNT coupled reticulocyte lysate (Promega), in vitro transcription/translation from pBS
T1 sequence (P47809 2-397): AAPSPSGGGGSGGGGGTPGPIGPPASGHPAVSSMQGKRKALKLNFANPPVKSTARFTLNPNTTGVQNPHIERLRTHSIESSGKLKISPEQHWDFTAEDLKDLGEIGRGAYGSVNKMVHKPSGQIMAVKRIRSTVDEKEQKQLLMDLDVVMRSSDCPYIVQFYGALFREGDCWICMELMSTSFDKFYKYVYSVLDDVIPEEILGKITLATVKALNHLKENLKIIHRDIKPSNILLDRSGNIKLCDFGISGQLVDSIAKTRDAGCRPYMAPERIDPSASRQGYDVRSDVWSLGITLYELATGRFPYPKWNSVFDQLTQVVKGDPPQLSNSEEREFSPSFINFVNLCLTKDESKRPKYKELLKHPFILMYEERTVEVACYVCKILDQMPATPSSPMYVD
Experimental: (§1) To confirm the above interactions, in vitro, GST pull-down experiments were performed. pBluescript (pBS) plasmids encoding full-length (FL) human ASK1, MEKK4, JNKK1, and JNKK2, or polypeptides derived from the amino- or carboxy-terminal portions of ASK1 (i.e. N-ASK1, spanning from amino acids 1 to 756, and C-ASK1, spanning from amino acids 648 to 1375) were transcribed and translated in vitro using the TNT coupled retyculocyte lysate system (Promega) in the presence of ^35S-methionine. 5 μl of each translation mix were incubated, in vitro, with sepharose-4B beads that had been coated with either purified glutathione-S-transferase (GST) polypeptides or GST-Gadd45β proteins. The latter proteins contained FL murine Gadd45β directly fused to GST. Binding assays were performed according to standard procedures, and ^35S-labeled proteins that bound to beads, as well as 2 μl of each in vitro translation mix (input), were then resolved by SDS polyacrylamide gel electrophoresis. Asterisks indicate the intact translated products. […] Thus, GST pull-down experiments confirmed the strong interaction between Gadd45β and JNKK2 observed in vivo, as well as the weaker interactions of Gadd45β with other kinases in the JNK pathway. These assays also uncovered a weak association between Gadd45β and JNKK1. […]

MEKK4 = target: T2, MEKK4 (Mus musculus, UniProt O08648); experiment: GST pull-down, GST-Gadd45β beads with in vitro translated 35S-labeled MEKK4; assay type: binding, murine
T2 construct: plasmids encoding full-length (FL) human ASK1, MEKK4, JNKK1, and JNKK2; made in house; host or cells: TNT coupled reticulocyte lysate (Promega), in vitro transcription/translation from pBS
T2 sequence (O08648 whole entry): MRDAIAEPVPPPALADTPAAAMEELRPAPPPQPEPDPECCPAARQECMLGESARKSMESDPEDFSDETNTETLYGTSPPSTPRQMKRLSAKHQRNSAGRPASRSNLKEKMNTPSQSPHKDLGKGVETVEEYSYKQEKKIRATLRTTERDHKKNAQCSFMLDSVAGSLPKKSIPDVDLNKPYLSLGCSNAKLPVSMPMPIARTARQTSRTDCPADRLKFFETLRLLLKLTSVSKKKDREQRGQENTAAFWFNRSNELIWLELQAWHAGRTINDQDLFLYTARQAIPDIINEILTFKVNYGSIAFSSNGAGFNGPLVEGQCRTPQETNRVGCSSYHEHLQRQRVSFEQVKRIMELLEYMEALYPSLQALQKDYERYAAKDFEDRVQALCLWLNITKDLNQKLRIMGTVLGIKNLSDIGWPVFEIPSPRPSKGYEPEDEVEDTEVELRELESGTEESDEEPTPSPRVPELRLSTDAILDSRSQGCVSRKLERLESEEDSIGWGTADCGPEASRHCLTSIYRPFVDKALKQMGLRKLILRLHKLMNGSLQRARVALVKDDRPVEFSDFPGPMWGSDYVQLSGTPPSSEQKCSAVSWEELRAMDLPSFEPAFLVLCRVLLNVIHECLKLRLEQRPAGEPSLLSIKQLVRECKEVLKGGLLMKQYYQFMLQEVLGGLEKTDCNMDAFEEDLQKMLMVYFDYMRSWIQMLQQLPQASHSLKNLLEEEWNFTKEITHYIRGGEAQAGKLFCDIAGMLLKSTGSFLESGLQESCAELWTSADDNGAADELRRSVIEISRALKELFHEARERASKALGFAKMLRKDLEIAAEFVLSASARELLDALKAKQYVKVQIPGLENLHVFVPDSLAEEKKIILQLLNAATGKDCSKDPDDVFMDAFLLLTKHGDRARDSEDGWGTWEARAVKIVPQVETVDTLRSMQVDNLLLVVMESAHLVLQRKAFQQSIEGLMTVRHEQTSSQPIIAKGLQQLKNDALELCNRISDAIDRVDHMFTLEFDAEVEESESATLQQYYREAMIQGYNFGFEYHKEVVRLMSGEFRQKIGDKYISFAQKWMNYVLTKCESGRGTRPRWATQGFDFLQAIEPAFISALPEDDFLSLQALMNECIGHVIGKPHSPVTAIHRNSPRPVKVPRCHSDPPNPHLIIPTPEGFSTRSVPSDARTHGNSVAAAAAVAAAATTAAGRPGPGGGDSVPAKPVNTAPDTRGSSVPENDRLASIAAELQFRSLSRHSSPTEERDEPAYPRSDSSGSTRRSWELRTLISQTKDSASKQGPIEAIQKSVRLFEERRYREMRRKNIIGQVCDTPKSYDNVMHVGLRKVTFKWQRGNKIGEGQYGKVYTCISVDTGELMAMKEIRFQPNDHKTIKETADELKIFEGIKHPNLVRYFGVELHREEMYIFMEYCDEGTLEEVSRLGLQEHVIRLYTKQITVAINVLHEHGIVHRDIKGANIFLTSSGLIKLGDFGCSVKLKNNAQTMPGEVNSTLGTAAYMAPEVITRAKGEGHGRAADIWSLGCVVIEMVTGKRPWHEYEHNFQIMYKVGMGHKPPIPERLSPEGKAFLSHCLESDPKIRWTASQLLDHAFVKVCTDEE
Experimental: as §1

JNKK2 = target: T3, JNKK2 (Homo sapiens, UniProt O14733, Q133P/Q94H); experiment: GST pull-down, GST-Gadd45β beads with in vitro translated 35S-labeled JNKK2; assay type: binding
T3 construct: plasmids encoding full-length (FL) human ASK1, MEKK4, JNKK1, and JNKK2; made in house; host or cells: TNT coupled reticulocyte lysate (Promega), in vitro transcription/translation from pBS
T3 sequence (O14733 1-401 Q94H/Q133P limits assumed): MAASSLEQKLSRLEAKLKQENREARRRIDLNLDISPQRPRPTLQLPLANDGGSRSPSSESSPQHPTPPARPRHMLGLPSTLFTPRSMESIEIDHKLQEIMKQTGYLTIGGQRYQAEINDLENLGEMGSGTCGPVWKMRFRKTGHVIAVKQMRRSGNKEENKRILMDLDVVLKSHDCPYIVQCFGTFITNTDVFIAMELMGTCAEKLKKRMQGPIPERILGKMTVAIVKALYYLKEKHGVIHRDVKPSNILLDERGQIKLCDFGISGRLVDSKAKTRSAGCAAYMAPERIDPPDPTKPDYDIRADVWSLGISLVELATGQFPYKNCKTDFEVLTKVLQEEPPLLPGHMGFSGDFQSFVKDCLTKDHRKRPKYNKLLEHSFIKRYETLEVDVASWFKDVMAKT
Experimental: as §1

association with JNKK1 (JNKK1): weakly | association with MEKK4 (MEKK4): less avidly than with JNKK2 | association with FL-JNKK2 (JNKK2): strongly associated
B1: GST-Gadd45β: full-length murine Gadd45β directly fused to GST, purified from E. coli (protein)
chain: MTLEELVASDNAVQKMQAVTAAVEQLLVAAQRQDRLTVGVYEAAKLMNVDPDSVVLCLLAIDEEEEDDIALQIHFTLIQSFCCDNDIDIVRVSGMQRLAQLLGEPAETLGTTEARDLHCLLVTNCHTDSWKSQGLVEVASYCEESRGNNQWVPYISLEER
modifications: left off: a dimerising Fc or GST
notes: full-length murine Gadd45β directly fused to GST, purified from E. coli
